Reference: article PMC9463536 (The Journal of Biological Chemistry, 2022)

B1: COP-2 (CpE Obstructing Protein 2), synthetic antigen-binding fragment (Fab, V domains shown)
VH: EVQLVESGGGLVQPGGSLRLSCAASGFNFSSSSIHWVRQAPGKGLEWVASISSYSGYTSYADSVKGRFTISADTSKNTAYLQMNSLRAEDTAVYYCARYWSWYNSSHYIYSALDYWGQGTLVTVSS
VL: DIQMTQSPSSLSASVGDRVTITCRASQSVSSAVAWYQQKPGKAPKLLIYSASSLYSGVPSRFSGSRSGTDFTLTISSLQPEDFATYYCQQSYEWAPVTFGQGTKVEIK
notes: also called sFab; source: E. coli BL21-Gold, purified (MabSelect SuRe, Resource S)
B2: COP-3 (CpE Obstructing Protein 3), synthetic antigen-binding fragment (Fab, V domains shown)
VH: EVQLVESGGGLVQPGGSLRLSCAASGFNFYSSSIHWVRQAPGKGLEWVAYISSYSGYTYYADSVKGRFTISADTSKNTAYLQMNSLRAEDTAVYYCARGYGYFDYNFSVGYALDYWGQGTLVTVSS
VL: DIQMTQSPSSLSASVGDRVTITCRASQSVSSAVAWYQQKPGKAPKLLIYSASSLYSGVPSRFSGSRSGTDFTLTISSLQPEDFATYYCQQSHPWYYPITFGQGTKVEIK
notes: as for B1

Biological target: biotinylated claudin-4–cCpE^1 complex (Homo sapiens claudin-4; Clostridium …, UniProt O14493;P01558, biotin (NHS-PEG4-biotin; sites not stated))
Test: BLI
Details: both partners purified

Sequence of biotinylated claudin-4–cCpE^1 complex (O14493 whole entry, chain 1 of 2): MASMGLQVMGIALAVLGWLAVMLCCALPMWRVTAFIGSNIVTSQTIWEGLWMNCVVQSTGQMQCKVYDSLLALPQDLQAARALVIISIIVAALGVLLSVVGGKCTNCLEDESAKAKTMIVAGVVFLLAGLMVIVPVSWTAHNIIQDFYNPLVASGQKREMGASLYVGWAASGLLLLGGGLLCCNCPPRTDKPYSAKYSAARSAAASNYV
Sequence of biotinylated claudin-4–cCpE^1 complex (P01558 197-319, chain 2 of 2): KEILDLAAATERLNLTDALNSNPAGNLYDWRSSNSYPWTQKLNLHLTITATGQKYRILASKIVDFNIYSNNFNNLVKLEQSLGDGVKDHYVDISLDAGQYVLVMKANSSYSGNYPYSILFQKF

Binder	Kd [nM]	koff [s⁻¹]	kon [M⁻¹ s⁻¹]
B1	161.3 ± 0.6	0.0012	7700
B2	200 ± 5.5	0.0039	19000
